Reference: paper PMC6030200 (Scientific Reports, 2018)

Target: the molecule itself
Assay: negative-stain electron microscopy

B1: HAdV-5 penton base protein, recombinant, soluble (natural protein)
chain: MRRAAMYEEGPPPSYESVVSAAPVAAALGSPFDAPLDPPFVPPRYLRPTGGRNSIRYSELAPLFDTTRVYLVDNKSTDVASLNYQNDHSNFLTTVIQNNDYSPGEASTQTINLDDRSHWGGDLKTILHTNMPNVNEFMFTNKFKARVMVSRLPTKDNQVELKYEWVEFTLPEGNYSETMTIDLMNNAIVEHYLKVGRQNGVLESDIGVKFDTRNFRLGFDPVTGLVMPGVYTNEAFHPDIILLPGCGVDFTHSRLSNLLGIRKRQPFQEGFRITYDDLEGGNIPALLDVDAYQASLKDDTEQGGGGAGGSNSSGSGAEENSNAAAAAMQPVEDMNDHAIRGDTFATRAEEKRAEAEAAAEAAAPAAQPEVEKPQKKPVIKPLTEDSKKRSYNLISNDSTFTQYRSWYLAYNYGDPQTGIRSWTLLCTPDVTCGSEQVYWSLPDMMQDPVTFRSTRQISNFPVVGAELLPVHSKSFYNDQAVYSQLIRQFTSLTHVFNRFPENQILARPPAPTITTVSENVPALTDHGTLPLRNSIGGVQRVTITDARRRTCPYVYKALGIVSPRVLSSRTF
notes: also called 5PB; source: Sf9 (baculovirus, pFastBac HT A), purified (Ni-NTA agarose, HiTrap Q-sepharose)
Question: With B1 as the protein, how does the “stoichiometry N” value read?
Answer: 5
